Measurements: patent US7704951B2, “Method for ameliorating dyskinesia” (Juridical Foundation the Chemo-Sero-Therapeutic Research …, priority 2001, dated 2010)
Entries after “also recorded” stand apart in the source; their conditions may differ. Where no end group is shown, it is not given here. [ ]: non-standard residue; d: D form. Sec = N[C@@H](C[SeH])C(=O)O

Columns and labels:
[1] = cited from earlier work
Dami cells = test: Cytotoxicity-inhibitory (cell death-inhibitory) activity assay using Dami cells; format: cell-based; conditions: for cytotoxicity-inhibitory activity: Dami cells, fatty acid-containing assay medium, 4 to 5 days, survival of the cells
Protocol: Using Dami cells (described in Greenberg S. M. et al., Blood, vol. 72, p. 1968-1977 (1988)) for use in assay system for cytotoxicity-inhibitory activity, the cells were washed twice with assay medium (50% PBS/SA/0.03% HSA (manufactured by SIGMA) or SA/0.05% BSA free from fatty acid (WAKO)/4 μM long-chain polyvalent fatty acid (e.g. arachidonic acid, linoleic acid or linolenic acid)) and suspended in the same medium at 3×10^4 cells/ml. The cell suspension was added to a 96-well plate in each 200 μl for wells for sample addition or in each 100 μl for wells for serial dilution. To the wells for sample addition was added each 2 μl assay sample containing either selenoprotein P fragment prepared in Preparation 1, selenocystine, selenomethionine, Ebselen, or sodium selenite at the same concentration. After stirring, a serial dilution was made with the wells containing 100 μl cell suspension. The plate was incubated at 37° C. in CO2 incubator for 4 to 5 days followed by assessment of survival of the cells.

EAE mice (SJL/JOrIICrj) = test: Experimental allergic encephalomyelitis (EAE) in mice, degree of paralysis; format: in vivo, mouse; conditions: 0.5 mg/head daily i.p. Day 8 to Day 13
Protocol: For investigating the effect of selenoprotein P on dyskinesia induced by immunopathy based on a degree of paralysis, an experiment was performed wherein selenoprotein P was administered to EAE mice. Female SJL/JOrIICrj of 14 weeks old (Charles River Japan, Inc.) was used as a test animal. Myelin proteolipid protein (PLP) synthetic peptide 139-151 (amino acid sequence: His Ser Leu Gly Lys Trp Leu Gly His Pro Asp Lys Phe (SEQ ID NO: 6); […]) as an immunogen was intradermally administered to the mice together with Freund complete adjuvant H37Ra ([…]) and pertussis toxin (manufactured by List Biological Laboratory; 200 ng/mouse) at two portions at the neck of tail.
Thirteen mice each in two groups received daily 0.5 mg/head of selenoprotein P via intraperitoneal administration from the day (Day 8) previous to onset of the disease till Day 13. A control group received saline via intraperitoneal administration.

[2] = Toxicity of selenium compounds (cell culture); conditions: in spite of 9 to 10 selenocysteines
Source text: Selenium per se, as involved in the present invention, is one of essential trace elements and it is known that deficiency thereof induces a serious deficiency disease accompanied by, for instance, cardiomyopathy. […] Acute toxic symptoms of selenium include, for example, pale face, neurological symptoms, dermatitis, and gastrointestinal disorders.

gerbil mice = test: Cerebral ischemia/reperfusion injury model (blocking both carotid arteries), degree of paralysis; format: in vivo; conditions: 1 mg/animal i.v., vs control
Protocol: Effect of selenoprotein P on dyskinesia induced by cerebral ischemia/reperfusion injury was assessed with a degree of paralysis using gerbil mice of 12 weeks old. […] […] A degree of paralysis was assessed after 6 and 24 hours.

hNT cells = test: Survival and protrusion formation in cultured human neurocytes; format: cell-based
Protocol: NT2 (Ntera2/D1) (Pleasure, S. J. and Lee, V. M., 1993, J. Neurosci. Res. 35: 585-602) is a progenitor neurocyte derived from human teratocarcinoma and can be differentiated with retinoic acid into hNT neurocytes having the properties of the nerve in the central nervous system (Trojanowski, J. Q. et al., 1993 Exp. Neurol. 122: 283-294). Effect of selenoprotein P on protrusion formation in the hNT cells was investigated.
Both NT2 and hNT cells can be cultured in CO2 incubator at 37° C. The hNT cells were prepared as follows: NT2 cells, being capable of passage culture in 10% FCS/D-MEM/F-12 medium, were first plated at 2.5×10^5 cells/ml. After 24 hours, the culture medium was replaced with D-MEM/F-12 containing 10 μM all-trans retinoic acid to initiate induction. The culture was subsequently continued for six weeks while replacing with the same medium every three days to differentiate NT2 cells into hNT cells. All the differentiated cells were recovered and expanded by 3-folds by passage culture with 10% FCS/D-MEM/F-12 medium. After 48 hours, the cells were plated at 3 to 4×10^6 cells/ml. After 48-hour culture, the culture medium was replaced with 5% FCS/D-MEM/F-12 plus mitotic inhibitor (10 μM Fluorodeoxyuridine, Uridine, 1 μM cytosine arabinoside) and culture was continued for ten days while replacing with the same medium every three days. Subsequently, the culture was treated with trypsin for a short time period and then lightly tapped to release the hNT cells which were recovered. The recovered cells were suspended in a mixed medium of an equal amount of NT2 culture supernatant (10% FCS/D-MEM/F-12 medium) and a fresh 10% FCS/D-MEM/F-12 medium. The suspension was plated on Laminin coating plate to maintain the cells. The hNT cells thus obtained were used in the following experiment.
The hNT cells were recovered by trypsin treatment, washed with a basal medium of RPMI 1640/D-MEM/F-12 (1:2:2), suspended in the same basal medium and cultured in 96-well plate at 3000 cells/well. On Day 5 to Day 7, the cells died completely.

N[C@@H](C[Se][Se]C[C@H](N)C(=O)O)C(=O)O [selenocystine]
toxicity when added alone to cell culture [1]: fairly strong toxicity

Lys Arg Cys Ile Asn Gln Leu Leu Cys Lys Leu Pro Thr Asp Ser Glu Leu Ala Pro Arg Ser Xaa Cys Cys His Cys Arg His Leu Ile Phe Glu Lys (KRCINQLLCKLPTDSELAPRS[Sec]CCHCRHLIFEK; cysteine pairing not given here; listed as Homo sapiens) [SEQ ID NO: 4, peptide purified from selenoprotein P fragments under reduced condition; Xaa = selenocysteine]
cytotoxicity-inhibitory activity (Dami cells): exhibit cytotoxicity-inhibitory activity

KRCINQLLCKLPTDSELAPRS (cysteine pairing not given here) [SEQ ID NO: 5, selenoprotein P-derived peptide with no selenocysteine, reference compound]
cytotoxicity-inhibitory activity (Dami cells): exhibit no cytotoxicity-inhibitory activity

B1: selenoprotein P (protein, UniProt P49908 20-381, looked up)
Selenoprotein P: ESQDQSSLCKQPPAWSIRDQDPMLNSNGSVTVVALLQASUYLCILQASKLEDLRVKLKKEGYSNISYIVVNHQGISSRLKYTHLKNKVSEHIPVYQQEENQTDVWTLLNGSKDDFLIYDRCGRLVYHLGLPFSFLTFPYVEEAIKIAYCEKKCGNCSLTTLKDEDFCKRVSLATVDKTVETPSPHYHHEHHHNHGHQHLGSSELSENQQPGAPNAPTHPAPPGLHHHHKHKGQHRQGHPENRDMPASEDLQDLQKKLCRKRCINQLLCKLPTDSELAPRSUCCHCRHLIFEKTGSAITUQCKENLPSLCSUQGLRAEENITESCQURLPPAAUQISQQLIPTEASASURUKNQAKKUEUPSN
cell death-inhibitory activity per proteins (Dami cells; full-length protein compared with fragment fraction from Preparation 1): much lower than that of the fragment | onset of the disease (EAE mice (SJL/JOrIICrj)): onset of the disease was inhibited | severity of the disease (paralysis score, Table 2) (EAE mice (SJL/JOrIICrj)): severity of the disease was lowered | toxicity [2]: no strong toxicity | degree of paralysis (score, Table 1) (gerbil mice; 30 minutes ischemia model, after 6 and 24 hours): apparently exhibited better conditions | degree of paralysis (score, Table 1) (gerbil mice; 45 minutes ischemia model, after 6 hours): no significant difference | degree of paralysis (score, Table 1) (gerbil mice; 45 minutes ischemia model, after 24 hours): much difference | survival time of hNT cells (hNT cells; 100 ng/ml, basal medium): more than two weeks | cell death of hNT cells (hNT cells; 100 ng/ml, basal medium RPMI 1640/D-MEM/F-12, without addition cells died completely on Day 5 to Day 7): completely inhibited | protrusion formation (cellular morphology) (hNT cells; hNT cells, observed on Day 4, FIG. 3): protrusion formation was observed; also recorded: protrusion was formed
